B1: 1LI-2Lf: chimeric oleate hydratase: 193 N-terminal amino acids of Lactococcus lactis enzyme and 397 C-terminal amino acids of Lysinibacillus fusiformis enzyme (protein)
chain: MRYTNGNYEAFVHPRKPENVDQKSAYIIGAGLAGLATAVFLIRDGQMSGDRIHILEELPLSGGSLDGSFIPHDGFVVRGGREMENHFECLWDLFRTIPSLEVDNASVLDEFYRIDRDDPNSSNCRIIHNRGERVDDDGKFTLSPKAQEEIIKLFMTKEELLVGKTIEDCFTDEFFESNFWLYWCSMFAFEKWHSAMEMRRYIMRFIHHIGGLPDLSALKFTKYNQYESLVLPMIKYLEGHDVDFQYNTVVENVLVDKVGDKKVAHTLVLRKNGVKENIELTENELVFVTNGSITESTTYGDNYTPAPVNKELGGSWSLWKNIAAQDTDFGRPEKFCDNLPKESWFVSATLTTLDDRVAPYIEKISKRDPYAGKVVTGGIVTATDSNWMLSYTLNRQPHFKHQPKDQLVVWIYGLLSNKPGDFIKKSITECSGIEIAQEWLYHMGVPVDEIPDIAQNSCNTIPCYMPYITSYFMPRAMGDRPLVVPEGSANLAFIGNFSETVRDTVFTTEYSVRTAMEAVYQLLNIDRGVPEVFASSFDVRTLLASTARLLDGKKLTDIDAPFILKQIGKLGIHKTKDTIIYDLLKESELI
modifications: OhyLlac579Lfus
notes: chimeric oleate hydratase: 193 N-terminal amino acids of Lactococcus lactis enzyme and 397 C-terminal amino acids of Lysinibacillus fusiformis enzyme
B2: 1Lf-2LI: chimeric oleate hydratase: 193 N-terminal amino acids of Lysinibacillus fusiformis enzyme and 394 C-terminal amino acids of Lactococcus lactis enzyme (protein)
chain: MYYSNGNYEAFARPKKPEGVDGKSAYLIGSGLASLSAACFLIRDGQMKGENIHILEELDISGGSLDGILNPTRGFIIRGGREMEDHFECLWDLFRSIPSLEVDNASVLDEFYWLNKEDPNYSKCRLIKDRGQRLEDDGKFTLSDQSSEEMIKLFFTPEEKLEDKKITDVFSEEFFESNFWLYWSTMFAFEKWHSAIEMRRYIMRFIHHIEGLPDFSALKFTKYNQYESLVKPLISYLKDHGVDFKYGAQVENVEVDFSNGKKVAKAIVFADKKIKELTGNDLVFVTNGSITESSTQGSPTQVAPKTSELGGSWKLWQNLAKQSEEFGHPDVFCKDIPKEAWVVSATVTWKNLKIQPYFEKLTHRQLRSGKVVTGGIVTVKDSNWLLSFTTHRQPHFKEQNDQETVTWVYGLLSNTPGNYIKKPIEDCTGEEITQELLYHLGMPEEEIEAFVKENTNTIPVYMPFITSYFMLREPGDRPLVVPEQSVNLAFLGNFAETERDTVFTTEYSVRTAMEAVYQLLNVDRGVPEVYASAYDLRTLASSAYYLSDKQKLEDLELSFIKKQALKVGLKKIKGTYIEELLEDAGLI
modifications: OhyLfus581Llac
notes: chimeric oleate hydratase: 193 N-terminal amino acids of Lysinibacillus fusiformis enzyme and 394 C-terminal amino acids of Lactococcus lactis enzyme
B3: oleate hydratase from Lysinibacillus fusiformis: oleate hydratase of Lysinibacillus fusiformis, known from the prior art (protein, listed as Lysinibacillus fusiformis)
chain: MYYSNGNYEAFARPKKPEGVDGKSAYLIGSGLASLSAACFLIRDGQMKGENIHILEELDISGGSLDGILNPTRGFIIRGGREMEDHFECLWDLFRSIPSLEVDNASVLDEFYWLNKEDPNYSKCRLIKDRGQRLEDDGKFTLSDQSSEEMIKLFFTPEEKLEDKKITDVFSEEFFESNFWLYWSTMFAFEKWHSAMEMRRYIMRFIHHIGGLPDLSALKFTKYNQYESLVLPMIKYLEGHDVDFQYNTVVENVLVDKVGDKKVAHTLVLRKNGVKENIELTENELVFVTNGSITESTTYGDNYTPAPVNKELGGSWSLWKNIAAQDTDFGRPEKFCDNLPKESWFVSATLTTLDDRVAPYIEKISKRDPYAGKVVTGGIVTATDSNWMLSYTLNRQPHFKHQPKDQLVVWIYGLLSNKPGDFIKKSITECSGIEIAQEWLYHMGVPVDEIPDIAQNSCNTIPCYMPYITSYFMPRAMGDRPLVVPEGSANLAFIGNFSETVRDTVFTTEYSVRTAMEAVYQLLNIDRGVPEVFASSFDVRTLLASTARLLDGKKLTDIDAPFILKQIGKLGIHKTKDTIIYDLLKESELI
modifications: Oleat Hydratase
notes: oleate hydratase of Lysinibacillus fusiformis, known from the prior art
B4: oleate hydratase from Lactococcus lactis: oleate hydratase of Lactococcus lactis strain A106, previously annotated as linoleate isomerase (protein, listed as Lactococcus lactis)
chain: MRYTNGNYEAFVHPRKPENVDQKSAYIIGAGLAGLATAVFLIRDGQMSGDRIHILEELPLSGGSLDGSFIPHDGFVVRGGREMENHFECLWDLFRTIPSLEVDNASVLDEFYRIDRDDPNSSNCRIIHNRGERVDDDGKFTLSPKAQEEIIKLFMTKEELLVGKTIEDCFTDEFFESNFWLYWCSMFAFEKWHSAIEMRRYIMRFIHHIEGLPDFSALKFTKYNQYESLVKPLISYLKDHGVDFKYGAQVENVEVDFSNGKKVAKAIVFADKKIKELTGNDLVFVTNGSITESSTQGSPTQVAPKTSELGGSWKLWQNLAKQSEEFGHPDVFCKDIPKEAWVVSATVTWKNLKIQPYFEKLTHRQLRSGKVVTGGIVTVKDSNWLLSFTTHRQPHFKEQNDQETVTWVYGLLSNTPGNYIKKPIEDCTGEEITQELLYHLGMPEEEIEAFVKENTNTIPVYMPFITSYFMLREPGDRPLVVPEQSVNLAFLGNFAETERDTVFTTEYSVRTAMEAVYQLLNVDRGVPEVYASAYDLRTLASSAYYLSDKQKLEDLELSFIKKQALKVGLKKIKGTYIEELLEDAGLI
modifications: Oleat Hydratase
notes: oleate hydratase of Lactococcus lactis strain A106, previously annotated as linoleate isomerase

Legend:
[1] = Conversion of oleic acid to 10-hydroxystearic acid by cell-free extracts (HPLC); assay type: biochemical; conditions: for activity at 30° C. compared with the wildtype enzymes: FIG. 3; for conversion of oleic acid to 10-hydroxystearic acid: cell-free extracts, pH7.0, 30° C., 150 mM oleic acid, 60 min, FAD 0.1 mM, NADH 5 mM, HPLC analysis
[2] = Effects of temperature on enzyme activity (oleic acid to 10-hydroxystearic acid); assay type: biochemical; conditions: pH7.0, 150 mM oleic acid, 20 min
Experimental: The reactions were performed in 100 mM citrate/phosphate buffer (pH7.0) containing MgSO4;
3.1 mg/ml total protein of Lactococcus lactis (a) or 5.6 mg/mL of total protein of chimeric oleate hydratase from Lysinibacillus fusiformis and Lactococcus lactis (b). FAD (0.1 mM) and NADH (5 mM) were applied for the FAD-reducing conditions. Reactions were started by the addition of 150 mM oleic acid for 20 min. At the relative activity of 100%, the specific enzyme activity of the oleate hydratase from Lactococcus lactis was 0.8 μmol min^−1 mg^−1 total protein and the specific enzyme activity of the chimeric oleate hydratase from Lysinibacillus fusiformis and Lactococcus lactis was 1.0 μmol min^−1 mg^−1 total protein.

[3] = Effects of pH on enzyme activity (oleic acid to 10-hydroxystearic acid, HPLC-MS); assay type: biochemical; conditions: citrate/phosphate buffer pH 5.6-8.0, 30° C., 40 min, 150 mM oleic acid
Experimental: The reactions were performed in 100 mM citrate/phosphate buffer (pH levels ranging from 5.6-8.0) containing MgSO4; 8.9 mg/ml total protein of Lactococcus lactis or 9.3 mg/mL of total protein of chimeric oleate hydratase from Lysinibacillus fusiformis and Lactococcus lactis. FAD (0.1 mM) and NADH (5 mM) were applied for the FAD-reducing conditions. Reactions were started by the addition of 150 mM oleic acid at 30° C. for 40 min. Following the reactions, the solutions of fatty acids and hydroxy fatty acids were recovered by three consecutive extractions with 1.6 volume of dichloromethane. After solvent evaporation, the resultant sample was diluted in ethanol and analyzed by HPLC-MS. Analyses were performed on an Agilent 1100 HPLC instrument equipped with evaporative light scattering detector (ELSD) and a Luna® C18 (2) HPLC column (RP-18e 5 μm, 250×4.6 mm) maintained at 50° C. The elution system consisted of ddH2O with 0.1% formic acid (A) and methanol with 0.1% formic acid (B). The gradient was set as follows: 0 min (80% B); 15 min (100% B); 23.2 min (80% B) at a flow rate of 0.7 mL min^−1.
Data represent the mean±standard deviation of three independent experiments (FIG. 5A and FIG. 6A).

[4] = Kim, Bi-Na et al. (2012); cited from earlier work

| Molecule | activity at 30° C. compared with the wildtype enzymes [1] | conversion of oleic acid to 10-hydroxystearic acid [1] | specific enzyme activity at the relative activity of 100% [2] | pH optimum [3] | temperature of maximal enzyme activity [4] [°C] | temperature of highest enzyme activity (temperature optimum) [2] [°C] |
| --- | --- | --- | --- | --- | --- | --- |
| B1 | higher than the wildtype enzyme from Lactococcus lactis and lower than the wildtype enzyme from Lysinibacillus fusiformis | confirmed |  |  |  |  |
| B2 | higher than the wildtype enzyme from Lactococcus lactis and lower than the wildtype enzyme from Lysinibacillus fusiformis | confirmed | 1.0 μmol min^−1 mg^−1 total protein | 6.5 |  |  |
| B3 |  |  |  |  | 35 |  |
| B4 |  |  | 0.8 μmol min^−1 mg^−1 total protein |  |  | 15 |

Reference: patent US20220282288A1, “NOVEL OLEATE HYDRATASES” (BRAIN BIOTECH AG, priority 2019, published 2022)
